Experimental data reported in US20090148437A1.

Columns and labels:
[1] = target: human TNFR1 (soluble recombinant protein) (human) (UniProt P19438); assay: phage ELISA, 1 nM TNFRI coat; 100 µg/ml trypsin; phage input 1.13E+10
[2] = target: human TNFR1 (soluble recombinant protein) (human) (UniProt P19438); assay: phage ELISA, 1 nM TNFRI coat; no trypsin; phage input 3.52E+08
[3] = target: human TNFR1 (soluble recombinant protein) (human) (UniProt P19438); assay: phage ELISA, 1 nM TNFRI coat; no trypsin; phage input 1.13E+10
[4] = target: human TNFR1 (soluble recombinant protein) (human) (UniProt P19438); assay: phage ELISA, 1 nM TNFRI coat; 10 µg/ml trypsin; phage input 7.05E+08
[5] = target: human TNFR1 (soluble recombinant protein) (human) (UniProt P19438); assay: phage ELISA, 1 nM TNFRI coat; no trypsin; phage input 1.41E+09
[6] = target: human TNFR1 (soluble recombinant protein) (human) (UniProt P19438); assay: phage ELISA, plate coated with 1 nM TNFRI, anti-M13-HRP; phage pre-treated 1 h RT with 10 µg/ml trypsin; phage input 4.51E+10
[7] = target: human TNFR1 (soluble recombinant protein) (human) (UniProt P19438); assay: phage ELISA, 1 nM TNFRI coat; 10 µg/ml trypsin; phage input 5.64E+09
[8] = target: human TNFR1 (soluble recombinant protein) (human) (UniProt P19438); assay: phage ELISA, 1 nM TNFRI coat; 1 mg/ml trypsin; phage input 2.26E+10
[9] = target: human TNFR1 (soluble recombinant protein) (human) (UniProt P19438); assay: phage ELISA, 1 nM TNFRI coat; 1 mg/ml trypsin; phage input 7.05E+08
[10] = target: human TNFR1 (soluble recombinant protein) (human) (UniProt P19438); assay: phage ELISA, plate coated with 1 nM TNFRI, anti-M13-HRP; phage pre-treated 1 h RT with 100 µg/ml trypsin; phage input 4.51E+10
[11] = target: human TNFR1 (soluble recombinant protein) (human) (UniProt P19438); assay: phage ELISA, 1 nM TNFRI coat; no trypsin; phage input 5.64E+09
[12] = target: human TNFR1 (soluble recombinant protein) (human) (UniProt P19438); assay: phage ELISA, 1 nM TNFRI coat; 100 µg/ml trypsin; phage input 7.05E+08
[13] = target: human TNFR1 (soluble recombinant protein) (human) (UniProt P19438); assay: phage ELISA, 1 nM TNFRI coat; 10 µg/ml trypsin; phage input 1.41E+09
[14] = target: human TNFR1 (soluble recombinant protein) (human) (UniProt P19438); assay: phage ELISA, 1 nM TNFRI coat; 100 µg/ml trypsin; phage input 2.82E+09
[15] = target: human TNFR1 (soluble recombinant protein) (human) (UniProt P19438); assay: phage ELISA, 1 nM TNFRI coat; 1 mg/ml trypsin; phage input 1.41E+09
[16] = target: human TNFR1 (soluble recombinant protein) (human) (UniProt P19438); assay: phage ELISA, plate coated with 1 nM TNFRI, anti-M13-HRP; phage pre-treated 1 h RT with 1 mg/ml trypsin; phage input 4.51E+10
[17] = target: human TNFR1 (soluble recombinant protein) (human) (UniProt P19438); assay: phage ELISA, 1 nM TNFRI coat; 10 µg/ml trypsin; phage input 2.82E+09
[18] = target: human TNFR1 (soluble recombinant protein) (human) (UniProt P19438); assay: phage ELISA, plate coated with 1 nM TNFRI, anti-M13-HRP; no trypsin (0 µg/ml); phage input 4.51E+10
[19] = target: human TNFR1 (soluble recombinant protein) (human) (UniProt P19438); assay: phage ELISA, 1 nM TNFRI coat; 100 µg/ml trypsin; phage input 2.26E+10
[20] = target: human TNFR1 (soluble recombinant protein) (human) (UniProt P19438); assay: phage ELISA, 1 nM TNFRI coat; 10 µg/ml trypsin; phage input 3.52E+08
[21] = target: human TNFR1 (soluble recombinant protein) (human) (UniProt P19438); assay: phage ELISA, 1 nM TNFRI coat; no trypsin; phage input 2.82E+09
[22] = target: human TNFR1 (soluble recombinant protein) (human) (UniProt P19438); assay: phage ELISA, 1 nM TNFRI coat; 10 µg/ml trypsin; phage input 1.13E+10
[23] = target: human TNFR1 (soluble recombinant protein) (human) (UniProt P19438); assay: phage ELISA, 1 nM TNFRI coat; no trypsin; phage input 7.05E+08
[24] = target: human TNFR1 (soluble recombinant protein) (human) (UniProt P19438); assay: phage ELISA, 1 nM TNFRI coat; 100 µg/ml trypsin; phage input 1.41E+09
[25] = target: human TNFR1 (soluble recombinant protein) (human) (UniProt P19438); assay: phage ELISA, 1 nM TNFRI coat; no trypsin; phage input 2.26E+10
[26] = target: human TNFR1 (soluble recombinant protein) (human) (UniProt P19438); assay: phage ELISA, 1 nM TNFRI coat; 1 mg/ml trypsin; phage input 2.82E+09
[27] = target: human TNFR1 (soluble recombinant protein) (human) (UniProt P19438); assay: phage ELISA, 1 nM TNFRI coat; 100 µg/ml trypsin; phage input 3.52E+08
[28] = target: human TNFR1 (soluble recombinant protein) (human) (UniProt P19438); assay: phage ELISA, 1 nM TNFRI coat; 10 µg/ml trypsin; phage input 2.26E+10
[29] = target: human TNFR1 (soluble recombinant protein) (human) (UniProt P19438); assay: phage ELISA, 1 nM TNFRI coat; 100 µg/ml trypsin; phage input 5.64E+09
[30] = target: human TNFR1 (soluble recombinant protein) (human) (UniProt P19438); assay: phage ELISA, 1 nM TNFRI coat; 1 mg/ml trypsin; phage input 3.52E+08
[31] = target: human TNFR1 (soluble recombinant protein) (human) (UniProt P19438); assay: phage ELISA, 1 nM TNFRI coat; 1 mg/ml trypsin; phage input 1.13E+10

Chain of human TNFR1 (soluble recombinant protein) (human) (P19438 30-211 limits assumed): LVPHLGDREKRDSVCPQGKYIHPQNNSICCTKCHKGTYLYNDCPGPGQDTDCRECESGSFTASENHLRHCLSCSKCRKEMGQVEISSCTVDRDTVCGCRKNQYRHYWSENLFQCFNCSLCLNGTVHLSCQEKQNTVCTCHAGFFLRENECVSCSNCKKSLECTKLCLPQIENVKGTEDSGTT

## DOM1h-131
[1]
  phage ELISA read-out: 0.284
[2]
  phage ELISA read-out: 0.577
[3]
  phage ELISA read-out: 0.949
[4]
  phage ELISA read-out: 0.286
[5]
  phage ELISA read-out: 0.85
[6]
  phage ELISA read-out: 0.784
[7]
  phage ELISA read-out: 0.695
[8]
  phage ELISA read-out: 0.229
[9]
  phage ELISA read-out: 0.084
[10]
  phage ELISA read-out: 0.418
[11]
  phage ELISA read-out: 0.962
[12]
  phage ELISA read-out: 0.084
[13]
  phage ELISA read-out: 0.409
[14]
  phage ELISA read-out: 0.141
[15]
  phage ELISA read-out: 0.089
[16]
  phage ELISA read-out: 0.284
[17]
  phage ELISA read-out: 0.573
[18]
  phage ELISA read-out: 0.916
[19]
  phage ELISA read-out: 0.377
[20]
  phage ELISA read-out: 0.213
[21]
  phage ELISA read-out: 0.946
[22]
  phage ELISA read-out: 0.86
[23]
  phage ELISA read-out: 0.705
[24]
  phage ELISA read-out: 0.115
[25]
  phage ELISA read-out: 0.944
[26]
  phage ELISA read-out: 0.114
[27]
  phage ELISA read-out: 0.084
[28]
  phage ELISA read-out: 0.802
[29]
  phage ELISA read-out: 0.196
[30]
  phage ELISA read-out: 0.08
[31]
  phage ELISA read-out: 0.183
